Experimental data published in US20210196828A1.

Key:
[1] = target: manZ component of the mannose permease complex (E. coli) (UniProt P69805)
[2] = target: manY component of the mannose permease complex (E. coli) (UniProt P69801)

Lambda gpH (Uniprot P03736)
apparent titer of packaged phagemids in MG1655 and KEIO manZ (log decrease in the apparent titer) [1]: 2
apparent titer of packaged phagemids in MG1655 and KEIO manY (log decrease in the apparent titer) [2]: 2
